In patent US20240368233A1 (University of Washington, published 2024):

T1: LHD101 chainB
T1 construct: also called LHD101B
T1 chain: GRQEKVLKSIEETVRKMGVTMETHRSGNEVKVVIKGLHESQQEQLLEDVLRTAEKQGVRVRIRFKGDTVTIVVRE

T2: 101B62
T2 construct: also called LHD101B62
T2 chain: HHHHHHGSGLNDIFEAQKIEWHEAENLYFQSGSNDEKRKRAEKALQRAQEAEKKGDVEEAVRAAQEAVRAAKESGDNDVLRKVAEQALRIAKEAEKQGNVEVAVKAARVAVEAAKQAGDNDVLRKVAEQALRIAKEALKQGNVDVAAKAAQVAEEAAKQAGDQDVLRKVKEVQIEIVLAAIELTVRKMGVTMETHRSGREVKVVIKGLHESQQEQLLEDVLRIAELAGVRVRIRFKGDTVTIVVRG

T3: 274B53
T3 construct: also called LHD274B DHR53 stop
T3 chain: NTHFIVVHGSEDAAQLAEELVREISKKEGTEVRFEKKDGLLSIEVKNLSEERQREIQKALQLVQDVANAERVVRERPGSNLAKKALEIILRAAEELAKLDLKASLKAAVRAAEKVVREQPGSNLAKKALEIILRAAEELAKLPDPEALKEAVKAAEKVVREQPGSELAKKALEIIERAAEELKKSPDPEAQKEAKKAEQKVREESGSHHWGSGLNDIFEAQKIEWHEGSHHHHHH

T4: LHD101 chainA
T4 construct: also called LHD101A
T4 chain: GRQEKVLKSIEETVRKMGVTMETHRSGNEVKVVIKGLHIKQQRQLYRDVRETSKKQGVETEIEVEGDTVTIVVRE

T5: DF202
T5 construct: Bivalent connector
T5 chain: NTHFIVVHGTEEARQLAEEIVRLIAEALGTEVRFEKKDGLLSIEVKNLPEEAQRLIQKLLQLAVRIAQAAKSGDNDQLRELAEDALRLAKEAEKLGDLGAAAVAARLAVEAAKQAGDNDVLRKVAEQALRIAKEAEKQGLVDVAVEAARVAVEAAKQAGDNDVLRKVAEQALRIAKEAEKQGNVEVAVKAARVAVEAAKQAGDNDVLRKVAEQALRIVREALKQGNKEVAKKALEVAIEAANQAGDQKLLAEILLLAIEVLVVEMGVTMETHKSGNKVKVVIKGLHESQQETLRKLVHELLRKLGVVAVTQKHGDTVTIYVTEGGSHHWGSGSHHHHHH

B1: LHD101A V69Q (designed binder)
chain: GRQEKVLKSIEETVRKMGVTMETHRSGNEVKVVIKGLHIKQQRQLYRDVRETSKKQGVETEIEVEGDTQTIVVRE
B2: LHD101A_Q42M (designed binder)
chain: GRQEKVLKSIEETVRKMGVTMETHRSGNEVKVVIKGLHIKQMRQLYRDVRETSKKQGVETEIEVEGDTVTIVVRE
B3: LHD101A_T70W (designed binder)
chain: GRQEKVLKSIEETVRKMGVTMETHRSGNEVKVVIKGLHIKQQRQLYRDVRETSKKQGVETEIEVEGDTVWIVVRE
B4: LHD101A_R43V (designed binder)
chain: GRQEKVLKSIEETVRKMGVTMETHRSGNEVKVVIKGLHIKQQVQLYRDVRETSKKQGVETEIEVEGDTVTIVVRE
B5: 29B53 (designed binder)
chain: SSIFLLSNVDESARQLAEELVREISKKEGTEVRFEKDDGFLTIEVKNLSEERLREIARALQLIVDVANAERVVRERPGSNLAKKALEIILRAAEELAKLPLKASLKAAVIAAELVVREQPGSNLAKKALEIILRAAEELAKLPDPEALKEAVKAAEKVVREQPGSELAKKALEIIERAAEELKKSPDPEAQKEAKKAEQKVREERPGSSGSHHHHHH
notes: also called LHD29B53
B6: 278B (designed binder)
chain: GGSTVTFDITNIDWKSAELIMLAVYDIAQQEGTDVTFSFKEGELQITVKNLHEKWKRLIEMLIEACRRAQDPDPESLKEAVRIAEELVRLHPGNPLARAALKVILTAAEELAKLPDPEALKEAVKAAEKVVREQPGSNLAKKALEIILRAAEELAKLPDPEALKEAVKAAEKVVREQPGSELAKKALEIIERAAEELKKSPDPEAQKEAKKAEQKVREERPGSGGSGSHHWGSGSHHHHHH
notes: also called LHD278 B; LHD278 chainB
B7: LHD101 A10 (designed binder)
single chain, LHD101 chain A fused to DHR10: HHHHHHGSGLNDIFEAQKIEWHEAENLYFQSGSSSEKEELRERLVKIVVENAKRKGDDTEEAREAAREAFELVREAAERAGIDSSEVLELAIRLIKEVVENAQREGYDISEAARAAAEAFKRVAEAAKRAGITSSEVLELAIILIKLVVELAQRKGYDISEAARAAAELFKRLAEALKRAGKTSERALALLILLLAIEILVRDMGVTMETHPSGNEVKVVIKGLHIKQQRQLYRLVREAAKLLGVEVEIEVEGDTVTIVVRGGS
B8: 101B14 (designed binder)
single chain, LHD101 chain B fused to DHR14: HHHHHHGSGLNDIFEAQKIEWHEAENLYFQSGSSEEVNERVKQLAEKAKEATDKEEVIEIVKELAELAKQSTDSELVNEIVKQLAEVAKEATDKELVIYIVKILAELAKQSTDSELVNEIVKQLAEVAKEATDKELVIYIVDILLKLAEQADDDELVEEIRKQLEEVAKEATDKELVEIIKAVIVLLVIISVVARMGVTMEIHKSGREVKVVIKGLHESQQEQLLEAVLRAAEEAGVRVRIRFKGDTVTIVVRG
notes: also called LHD101 B14
B9: LHD274 A76 (designed binder)
single chain, LHD274 chain A fused to DHR76: GSTTNFHLINGSEEARQVIEEIVEIIARLAGTEVHFEKSDGTLEIRVKNLHEELERLIKELIELALLLQLAKKEAIEEAKKQGNPELVEWVARAAEVVKEVLRVAAEAAGAGNPDLAKAAAELARAVIEAIEEAVKQGNAELVEWVARAAKVAAEVIKVAIQAEKEGNRDLFRAALELVRAVIEAIEEAVKQGNAELVERVARLAKKAAELIKRAIRAEKEGNRDERREALERVREVIERIEELVRQGNGSHHWGSGLNDIFEAQKIEWHEGSHHHHHH
B10: 101B4 (designed binder)
chain: HHHHHHGSGLNDIFEAQKIEWHEAENLYFQSGSYEDECEEKARRVAEKVERLKRSGTSEDEIAEEVAREISEVIRTLKESGSSYEVICECVARIVAEIVEALKRSGTSEDEIAEIVARVISEVIRTLKESGSSYEVICECVARIVAEIVEALKRSGTSEEEIAEIVARVIQEVIRTLKESGSSYEVIRECLRRILEEVIEALKRSGVDSSEIVLIIIKIAVAVMGVTMEEHRSGNEVKVVIKGLHESQQEELLELVLRAAELAGVRVRIRFKGDTVTIVVRG
notes: also called LHD101B4
B11: 202B57 (designed binder)
chain: GSSVEFHIVNISEKAAQIIERAVRAISKELGTEVRFEKRDGELTIEVKNLHERRLQEILLLIEAVKLLLLALKAVKEDPSTDALRAVLEAVRFASEVAKRVENPEAVAVLAELVIELALEAVKEDPSTDALRAVLEAVRLASEVAKRVTDADKALKIAKLVIELALEAVKEDPSEEAKRAVEEAKRLAEEVSKRVTDPELSEKIRQLVKELEEEAQKEDPSGSHHWGSGLNDIFEAQKIEWHEGSHHHHHH
B12: 202B64 (designed binder)
single chain, LHD202 chain B fused to DHR64: GSSVEFHIVNIDEDVAQLIELAVKLISKEEGTEVRFEKRDGELTIEVKNLHEKDLQLILELIEALLLIARAIELLRQAKEKGSEEDLEKALRTAEESARRLKKVLEKAEKLGNLGVALAAVAGVVLVAELLLRIAKESGSEEALERALRVAEEAARLAKRVLELAEKLGDAEAALLAVELVVRVAELLLRIAKESGSEEALERALRVAEEAARLAKRVLELAEKQGDAEVARRAVELVKRVAELLERIARESGSEEAKERAERVREEARELQERVKELREREGDGSHHWGSGLNDIFEAQKIEWHEGSHHHHHH
notes: also called LHD202 B64

Experiments:
[1] = target: T1, LHD101 chainB; assay: BLI, dissociation rate constant (kdis)
Protocol: Biolayer interferometry experiments were performed on an OctetRED96 BLI system (ForteBio, Menlo Park, CA). Streptavidin coated biosensors were first equilibrated for at least 10 minutes in Octet buffer (10 mM HEPES pH 7.4, 150 mM NaCl, 3 mM EDTA, 0.05% Surfactant P20) supplemented with 1 mg/ml Bovine Serum Albumin (SigmaAldrich). Enzymatically biotinylated designs were immobilized onto the biosensors by dipping the biosensors into a solution with 10-50 nM protein for 30-120 s. This was followed by dipping in fresh octet buffer to establish a baseline for 120 s. Titration experiments were performed at 25° C. while rotating at 1,000 r.p.m. Association of designs was allowed by dipping biosensors in solutions containing designed protein diluted in octet buffer until equilibrium was approached followed by dissociation by dipping the biosensors into fresh buffer solution in order to monitor the dissociation kinetics. Steady-state and global kinetic fits were performed using the manufacturer's software (Data Analysis 9.1) assuming a 1:1 binding model.

[2] = target: the molecule itself; assay: SEC titration of the protomer alone at several injection concentrations (Superdex 200, normalised A230); self-association
[3] = target: B8; assay: SEC binding assay (Superdex 200, normalised A230) of A, B and the mixture AB
Protocol: (§1) Complexes and individual components were diluted in 20 mM Tris pH 8.0, 100 mM NaCl. After o/n equilibration of the mixtures at room temperature or 4 degrees C., 500 ul of sample was injected onto a Superdex™ 200 10/300 increase GL (dimers, linear assemblies) or Superose™ 6 increase 10/300 GL (symmetric assemblies) (all columns from GE healthcare) using the absorbance at 230 nm or 473 nm (for GFP tagged components) as read-out. Dimers were mixed at monomer concentrations of 5 μM or higher. Trimer and ABCD tetramer mixtures contained 5 μM of the bivalent connector, and 7.5 μM of each terminal cap (lower absolute concentrations with the same ratios were used for some trimers). ABCA tetramer mixtures contained 5 μM per bivalent connector and 15 μM terminal cap. The hexamer mixture contained 3 μM of components C and D, 3.6 μM of B and E, and 4.4 μM of A and F. The branched assembly shown in FIG. 4A contained 2.8 μM of the trivalent connector and 4 μM of each cap. For the exchange experiment shown in FIG. 5A, the ABC trimer was preincubated at concentrations of 6 μM B and 9 μM each of A and C. C′ was then added to reach a final concentration of 2 μM B, 3 μM each of A and C, and 6 μM C′.

[4] = target: T2, 101B62; assay: as above
Protocol: as §1

[5] = target: T3, 274B53; assay: as above
Protocol: as §1

[6] = target: T4, LHD101 chainA; assay: BLI steady-state titration, biotinylated unfused LHD101A on a streptavidin sensor
Source text: FIG. 8A-E. Characterization LHD binding in vitro. A: Designed models heterodimers (top row). Middle row, SEC binding experiments performed on a Superdex™ 75 column. Bottom row, biolayer interferometry kinetic binding traces. […] C: Kinetic binding traces from BLI. Equilibrium responses were used to fit equilibrium binding curves D: Equilibrium binding curves of LHDs from biolayer interferometry binding assays with data from C. […] Biotinylated unfused protomers were immobilized on streptavidin coated biosensors.
Biolayer interferometry experiments were performed on an OctetRED96 BLI system (ForteBio, Menlo Park, CA). Streptavidin coated biosensors were first equilibrated for at least 10 minutes in Octet buffer (10 mM HEPES pH 7.4, 150 mM NaCl, 3 mM EDTA, 0.05% Surfactant P20) supplemented with 1 mg/ml Bovine Serum Albumin (SigmaAldrich). Enzymatically biotinylated designs were immobilized onto the biosensors by dipping the biosensors into a solution with 10-50 nM protein for 30-120 s. This was followed by dipping in fresh octet buffer to establish a baseline for 120 s. Titration experiments were performed at 25° C. while rotating at 1,000 r.p.m. […]

[7] = target: T5, DF202; assay: SEC of mixed components; trimer listed in Table 6
Protocol: as §1

Binder	koff [1] [s⁻¹]	binding result [2]	other results
B1	0.00653	–	–
B2	0.00941	–	–
B3	0.0102	–	–
B4	0.0113	–	–
B5	–	binds	–
B6	–	binds	–
B7	–	–	binding result [3]: binds; binding result [4]: binds
B8	–	no binding (tested: 114.0 uM)	–
B9	–	–	binding result [5]: binds
B10	–	–	binding result [6]: binds
B11	–	–	binding result [7]: binds
B12	–	binds	–
